Numbered stars: 1 amine (or outer) side, 2 acyl side, 3 side chain; on linkers, the order of the positions; unused ones are H or OH. Bridge positions count the residues as written; N and C are the ends. Square brackets hold non-standard residues; d marks the D form. Peptide text beside a SMILES is read from it. Glu(cHx) = L-glutamic acid cyclohexyl ester, O=C(CC[C@H](N[*:1])C(=O)[*:2])OC1CCCCC1; Pro(4S-SH) = O=C([C@@H]1C[C@H](S[*:3])CN1[*:1])[*:2]; Trp(6-Cl) = N[C@@H](Cc1c[nH]c2cc(Cl)ccc12)C(=O)O; Cha = N[C@@H](CC1CCCCC1)C(=O)O; Orn = NCCC[C@H](N)C(=O)O
T1: NCoA-1 (Homo sapiens, UniProt Q15788)
T1 sequence (Q15788 257-385 limits assumed): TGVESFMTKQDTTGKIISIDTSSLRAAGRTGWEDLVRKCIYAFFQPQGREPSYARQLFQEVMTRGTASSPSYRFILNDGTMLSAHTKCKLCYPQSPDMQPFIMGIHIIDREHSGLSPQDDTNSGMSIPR

T2: human UTR2 receptor (human, UniProt Q9UKP6 1-389)
T2 sequence (looked up): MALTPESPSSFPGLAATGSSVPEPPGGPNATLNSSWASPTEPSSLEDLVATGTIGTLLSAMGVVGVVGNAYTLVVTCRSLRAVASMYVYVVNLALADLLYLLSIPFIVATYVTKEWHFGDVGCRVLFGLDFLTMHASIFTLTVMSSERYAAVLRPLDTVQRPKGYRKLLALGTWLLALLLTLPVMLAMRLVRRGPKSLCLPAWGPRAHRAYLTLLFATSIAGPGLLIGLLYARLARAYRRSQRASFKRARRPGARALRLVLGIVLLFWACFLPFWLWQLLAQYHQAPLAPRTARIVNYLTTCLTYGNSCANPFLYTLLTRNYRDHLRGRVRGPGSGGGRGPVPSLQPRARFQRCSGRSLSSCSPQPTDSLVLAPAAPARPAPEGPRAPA

B1: Ex. 32 (peptide)
peptide: cyclo(DCF[dW][Orn]YCV[dP]P)
modifications: disulfide 2-7
SMILES: CC(C)[C@@H]1NC(=O)[C@@H]2CSSC[C@H](NC(=O)[C@H](CC(=O)O)NC(=O)[C@@H]3CCCN3C(=O)[C@H]3CCCN3C1=O)C(=O)N[C@@H](Cc1ccccc1)C(=O)N[C@H](Cc1c[nH]c3ccccc13)C(=O)N[C@@H](CCCN)C(=O)N[C@@H](Cc1ccc(O)cc1)C(=O)N2
B2: Ex. 35 (peptide)
peptide: cyclo(DCFWKYC[Cha][dP]P)
modifications: disulfide 2-7
SMILES: NCCCC[C@@H]1NC(=O)[C@H](Cc2c[nH]c3ccccc23)NC(=O)[C@H](Cc2ccccc2)NC(=O)[C@@H]2CSSC[C@H](NC(=O)[C@H](Cc3ccc(O)cc3)NC1=O)C(=O)N[C@@H](CC1CCCCC1)C(=O)N1CCC[C@@H]1C(=O)N1CCC[C@H]1C(=O)N[C@@H](CC(=O)O)C(=O)N2

The molecules below were run against T1, NCoA-1 (assay: Competition fluorescence polarization assay: NCoA-1 binding affinities of peptides (STAT6/NCoA-1 interaction)). Conditions: competition with FluoSTAT6 (200 nM), NCoA-1 1 μM; Ki calculated from IC50; read-out: Ki [μM], peptide binding to NCoA-1.
Protocol: 2.4. Fluorescence Polarization Assay: NCoA-1 Binding Affinities of Peptides
The mixtures were shaken thoroughly. Fluorescence polarization was measured on a SPECTRAmax M5 spectrometer (Molecular device) following 5-30 min incubation at room temperature. FluoSTAT6 was excited at 490 nm and emission polarization was detected at 525 nm. 40 intensity measurements were collected for each well, 20 at horizontal position of the dynamic polarizer, 20 at parallel position. As the fraction of FluoSTAT6 bound to NCoA-1 is correlated to the fluorescence polarization (FP), after normalization, the fraction of bound FluoSTAT6 (B) was determined, and the KD was calculated according to B=[(1+P/R+KD/R)−((1+P/R+KD/R)^2−4P/R)^0.5]/2, wherein P is the total probe concentration, R the total protein concentration and KD the dissociation constant (M. H. Roehrl, J. Y. Wang, G. Wagner, Biochemistry 2004, 3, 16056).
The mixture was completed by a HEPES buffer solution of NCoA-1 (1 μM final concentration) and processed as described above. STAT6Y (C-terminal tyrosine extended STAT6 794-814 peptide) was used as a positive control. As the total fluorescence intensity of FluoSTAT6 remains similar for all samples, the fraction of peptide bound to NCoA-1 is correlated to the fluorescence polarization.
Following normalization data were fitted with IGORpro Software® (WaveMetrics, Lake Oswego, Oreg., USA) to a sigmoid equation to determine IC50 values. The Ki values were calculated from IC50 values according to the method described by Nikolovska-Coleska et al. Anal. Biochem., 2004, 332, 261).
With CC[C@H](C)[C@@H]1NC(=O)[C@H](CCC(=O)O)NC(=O)[C@H](Cc2c[nH]c3ccccc23)NC(=O)[C@H](C)NC(=O)[C@H](CC(C)C)NC(=O)[C@H](Cc2c[nH]c3ccccc23)NC(=O)[C@H](CCC(=O)O)NC(=O)[C@H](Cc2ccccc2)NC(=O)[C@@H]2CCCN2C(=O)[C@H]2CCCN2C1=O [compound 10] (cyclo(FEWLAWEI[dP]P)) the Ki was 3.1 µM.
Work on C[C@@H]1NC(=O)[C@H](CS)NC(=O)[C@H](Cc2c[nH]c3cc(Cl)ccc23)NC(=O)[C@H](CCC(=O)O)NC(=O)[C@H](Cc2ccccc2)NC(=O)[C@@H]2CCCN2C(=O)[C@H]2CCCN2C(=O)[C@H](Cc2ccccc2)NC(=O)[C@H](CCC(=O)O)NC(=O)[C@H](Cc2c[nH]c3ccccc23)NC1=O [compound 15] (cyclo(FE[Trp(6-Cl)]CAWEF[dP]P)) yielded a Ki of 3.1 µM.
With “backbone-cyclized β-hairpin peptidomimetic; P1-P8 Phe-Glu-Trp-Leu-Ala-Trp-Glu-Glu(cHx), template DPro-LPro (cyclo(FEWLAWE[Glu(cHx)][dP]P); SMILES CC(C)C[C@@H]1NC(=O)[C@H](Cc2c[nH]c3ccccc23)NC(=O)[C@H](CCC(=O)O)NC(=O)[C@H](Cc2ccccc2)NC(=O)[C@@H]2CCCN2C(=O)[C@H]2CCCN2C(=O)[C@H](CCC(=O)OC2CCCCC2)NC(=O)[C@H](CCC(=O)O)NC(=O)[C@H](Cc2c[nH]c3ccccc23)NC(=O)[C@H](C)NC1=O) [compound 9]” the Ki was 1.5 µM.
Work on “backbone-cyclized β-hairpin peptidomimetic; P1-P8 Phe-Thr-Trp(6Cl)-Leu-Ala-Trp-Glu-Phe, template DPro-L4Mp1 (cyclo(FT[Trp(6-Cl)]LAWEF[dP][Pro(4S-SH)]); SMILES CC(C)C[C@@H]1NC(=O)[C@H](Cc2c[nH]c3cc(Cl)ccc23)NC(=O)[C@H]([C@@H](C)O)NC(=O)[C@H](Cc2ccccc2)NC(=O)[C@@H]2C[C@H](S)CN2C(=O)[C@H]2CCCN2C(=O)[C@H](Cc2ccccc2)NC(=O)[C@H](CCC(=O)O)NC(=O)[C@H](Cc2c[nH]c3ccccc23)NC(=O)[C@H](C)NC1=O) [compound 5]” yielded a Ki of 3.8 µM.

The molecules below were run against T2, human UTR2 receptor (assay: cell-based or functional assay). Conditions: not given.
In the case of B1, the “IC50% (Ca2+ assay, antagonist activity; compound added prior to urotensin)” value is reported as 0.03 nM.
In the case of B2, the “IC50% (Ca2+ assay, antagonist activity; compound added prior to urotensin)” value is reported as 0.2 nM.

Reference: patent US20170369523A1, “TEMPLATE-FIXED BETA-HAIRPIN PEPTIDOMIMETICS THAT ARE LIGANDS FOR G-PROTEIN-COUPLED RECEPTORS (GPCRS) AND ARE MODULATORS OF TRANSCRIPTION FACTORS AND COACTIVATORS” (POLYPHOR AG, priority 2008, published 2017)
